Experimental data reported in US20240117018A1.

Columns and labels:
Assay in all cases: cell-based or functional assay
[1] = target: MuLV envelope (negative control pseudovirus) (MuLV)
[2] = target: Env of HIV-1 pseudovirus 1006_11_C3_1601 (HIV-1)
[3] = target: Env of HIV-1 pseudovirus 249M B10 (HIV-1)
[4] = target: Env of HIV-1 pseudovirus 62357_14_D3_4589 (HIV-1)
[5] = target: Env of HIV-1 pseudovirus CAP210.2.00.E8 (HIV-1)
[6] = target: Env of HIV-1 pseudovirus CNE17 (HIV-1)
[7] = target: Env of HIV-1 pseudovirus CNE19 (HIV-1)
[8] = target: Env of HIV-1 pseudovirus CNE58 (HIV-1)
[9] = target: Env of HIV-1 pseudovirus Ce1172_H1 (HIV-1)
[10] = target: Env of HIV-1 pseudovirus Ce2010_F5 (HIV-1)
[11] = target: Env of HIV-1 pseudovirus HIV-16055-2.3 (HIV-1)
[12] = target: Env of HIV-1 pseudovirus SC422661.8 (HIV-1)
[13] = target: Env of HIV-1 pseudovirus T250-4 (HIV-1)
[14] = target: Env of HIV-1 pseudovirus THRO4156.18 (HIV-1)
[15] = target: Env of HIV-1 pseudovirus ZM197M.PB7 (HIV-1)
[16] = target: HIV-1 Env pseudovirus 1056_10_TA11_1826 (HIV-1)
[17] = target: HIV-1 Env pseudovirus 246F C1G (HIV-1)
[18] = target: HIV-1 Env pseudovirus 6240_08_TA5_4622 (HIV-1)
[19] = target: HIV-1 Env pseudovirus Ce0393_C3 (HIV-1)
[20] = target: HIV-1 Env pseudovirus Ce1086_B2 (HIV-1)
[21] = target: HIV-1 Env pseudovirus Du172.17 (HIV-1)
[22] = target: HIV-1 Env pseudovirus HIV-0013095-2.11 (HIV-1)
[23] = target: HIV-1 Env pseudovirus MS208.A1 (HIV-1)
[24] = target: HIV-1 Env pseudovirus Q259.d2.17 (HIV-1)
[25] = target: HIV-1 Env pseudovirus Q461.e2 (HIV-1)
[26] = target: HIV-1 Env pseudovirus REJO4541.67 (HIV-1)
[27] = target: HIV-1 Env pseudovirus ZM135M.PL10a (HIV-1)
[28] = target: HIV-1 Env pseudovirus ZM53M.PB12 (HIV-1)

## N49P7 (antibody)
[1]
  IC50 (neutralisation, TZM.bl cells): > 50 µg/mL
  IC80 (neutralisation, TZM.bl cells): > 50 µg/mL
  MPI: 9

## PG9 (antibody)
[2]
  IC50: 0.366 µg/mL
  IC80: 1.91 µg/mL
[3]
  IC50: 0.095 µg/mL
  IC80: 0.29 µg/mL
[4]
  IC50: > 50 µg/mL
  IC80: > 50 µg/mL
[5]
  IC50: 0.04 µg/mL
  IC80: 0.173 µg/mL
[6]
  IC50: 0.21 µg/mL
  IC80: 0.484 µg/mL
[7]
  IC50: 0.024 µg/mL
  IC80: 0.146 µg/mL
[8]
  IC50: 0.038 µg/mL
  IC80: 0.122 µg/mL
[9]
  IC50: 0.07 µg/mL
  IC80: 0.206 µg/mL
[10]
  IC50: > 50 µg/mL
  IC80: > 50 µg/mL
[11]
  IC50: 0.021 µg/mL
  IC80: 0.06 µg/mL
[12]
  IC50: 0.553 µg/mL
  IC80: 7.05 µg/mL
[13]
  IC50: 0.005 µg/mL
  IC80: 0.014 µg/mL
[14]
  IC50: 24.5 µg/mL
  IC80: > 50 µg/mL
[15]
  IC50: 0.899 µg/mL
  IC80: 4.52 µg/mL

## N49P7.1 (antibody)
[1]
  IC50 (neutralisation, TZM.bl cells): > 50 µg/mL
  IC80 (neutralisation, TZM.bl cells): > 50 µg/mL
  MPI: 4

## N49P18.1 (antibody)
[16]
  IC50: 30.5 µg/mL
  IC80: > 50 µg/mL
  MPI: 62
[17]
  IC50: 3.4 µg/mL
  IC80: 20.2 µg/mL
  MPI: 97
[18]
  IC50: 35.2 µg/mL
  IC80: > 50 µg/mL
  MPI: 60
[19]
  IC50: 10.3 µg/mL
  IC80: 24.8 µg/mL
  MPI: 92
[20]
  IC50: 8.98 µg/mL
  IC80: 48 µg/mL
  MPI: 92
[21]
  IC50: 6.52 µg/mL
  IC80: 21.3 µg/mL
  MPI: 92
[22]
  IC50: > 50 µg/mL
  IC80: > 50 µg/mL
  MPI: 48
[23]
  IC50: 8.31 µg/mL
  IC80: 33.3 µg/mL
  MPI: 88
[24]
  IC50: > 50 µg/mL
  IC80: > 50 µg/mL
  MPI: 37
[25]
  IC50: 24.7 µg/mL
  IC80: > 50 µg/mL
  MPI: 68
[26]
  IC50: 4.08 µg/mL
  IC80: 30.1 µg/mL
  MPI: 89
[27]
  IC50: > 50 µg/mL
  IC80: > 50 µg/mL
  MPI: 46
[28]
  IC50: 1.3 µg/mL
  IC80: 4.51 µg/mL
  MPI: 99

## 10E8 (antibody)
[2]
  IC50: 0.172 µg/mL
  IC80: 3 µg/mL
[3]
  IC50: 1.27 µg/mL
  IC80: 9.05 µg/mL
[4]
  IC50: 0.119 µg/mL
  IC80: 1.06 µg/mL
[5]
  IC50: 0.798 µg/mL
  IC80: 3.89 µg/mL
[6]
  IC50: 1.11 µg/mL
  IC80: 5.25 µg/mL
[7]
  IC50: 0.666 µg/mL
  IC80: 6.49 µg/mL
[8]
  IC50: 1.29 µg/mL
  IC80: 8.27 µg/mL
[9]
  IC50: 0.722 µg/mL
  IC80: 4.82 µg/mL
[10]
  IC50: 1.84 µg/mL
  IC80: 8.61 µg/mL
[11]
  IC50: 0.722 µg/mL
  IC80: 6.5 µg/mL
[12]
  IC50: 0.445 µg/mL
  IC80: 2.71 µg/mL
[13]
  IC50: 1.35 µg/mL
  IC80: 8.13 µg/mL
[14]
  IC50: 0.156 µg/mL
  IC80: 0.884 µg/mL
[15]
  IC50: 0.148 µg/mL
  IC80: 0.802 µg/mL
